In a protein production outcome set (Wang et al. 2014) one finds protein production data, which are given here for 22 sequences.
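Also: failed if final PepcDB status was selected cloned or expressed and not failed if soluble or beyond.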

A short description of this data set: label from the status in PepcDB records.
For “AIAKETEQVSEAPHGLEGAWLDLTNRVRVSGDTVEACSAFSIGPPRCRWLLQATDRGVNCAALDHYVPHICGTHTETVYHIAHHRYIKRAVCEIPFFRFHKARIQVCTAKIACTEQVLPSADTDYPCLEPNDLIVGPSALNRAPRYTRAQDSTIEALILIVVGPDGTSDWRDGKLDDRPPYLTPAAIESLATRYPNMRHLLTNLPSVDRRRDGGLVRSHRAFFATDFAGDGTPSESPQKTITELLRVPPDWQLYDDAEGVVCISLAPIEGLDAIPSSVYFKSH”, the protein production result was “failed”.

Consider “MAKIITPLSANQVKNAKPGDKLYKLSDGGGLALWVYPTGRRSWKLSFMQDGRQQTISLGRYPDFSLAEAREWREEVRRKRAHGENVVNKKVRADFAFEKVARDWFVRWSKGRSEKYAGQVMRNFERWVFPAIGNLDIRQVRTADVVGCLRVMEARGIVDTLRKTKNSLKMVFAFAVGSGMMEINPVAQIGSGVFERVKTKNMTALSPSELPRLIDFLEQRNEFAVYAGRVHIHPVTRFCIYWLLLTMTRIREAALMEWSELDGEVWRIPAERKKERRGHDVPLSRAMRWVLDQARGLNVNGRFVFESVNFQGHINKESPHVAMRRSGLDTTAHGLRSLARTYLREVLKVYNDVAEKLLAHSLGTRTQTAYNRSELWEERKDAPERWGNDVLRLADNGK”, for which the protein production result is “failed”.

Regarding “SQEIVAGELERCFLAMPESVLPIVTMEERNDLCRRAGHLSGFTHTASLESSLGGTVTFLLNRNFIRIQTSTVGEVFMRILPFSDSSSVICVVTTVLHPVADSRIDFYTTEWKPLKTDRFWQQPRIEDFFLPHTDRQSYAYQAIYASLTPSYMQVSLSEESDTLSIRQTVTETLAEEEKPLAAIFLSPEPLVYRWQSGRFVRQVR”, the protein production entry is reported as “not failed”.

In the case of “VYRRILLTVDEDDNTSSERAFRYATTLAHDYDVPLGICSVLESEDINIFDSLTPSKIQAKRKHVEDVVAEYVQLAEQRGVNQVEPLVYEGGDVDDVILEQVIPEFKPDLLVTGADTEFPHSKIAGAIGPRLARKAPISVIVVR”, the protein production entry was “failed”.

With “MRLNGDVGWLWDWLAAAGLEPRALGEAAVLCALKRRLDAAGCTAAAYPARLAADAEERARLLDAVLVPETWFFREPPAFEALAESAARHRLQRRSVPFHVLSLGCSTGEEPWSIVIALREAGMRKGDFRVEALDISARAIEAARAGIYGGRSFRSPGDGTWRSRYFDELGDGRYRVKDGLRGDVEYRVAHLGDPGWGGGRRYQAVFCRNVLIYLRAELRARIMDQCRDALDPGGLLVLGHADGIGGPDRGFRRHGVAGAFSWIRRDAAEAEPPPARSSRPLAAKAVRRDAPGEAKPSGPDLLSGGRETGRAAPFDEGAVLGTARALADGGNYQAAERLCQSHLASHPHDPEVHALLGIVMSAANRDDEALRYFRQALYLAPSHNESLLHLAALYERRGDEERARHFRNRSAAAEGEP”, the protein production result is listed as “failed”.

For the sequence “MSAVFSGGLTQAGGMSSTETVDSSAVSSGTISDYVEAMGPSWIAGAIAAGPATIASLVTAGGAFGYSLLWVVVLSAGAGALAQYLAMRLGLLTERGIVAVVEDHLGETWAWLLVGDAVLAAGVAQLVIMKTVATVSATVTGIDARIWGVVWALILAAGLAGGGYRFLELAAKILVLLVVVAFVASLFVVPIDAGAAVAGLVPSVPSGSALVAAGILGGAVHITLITMHSYTMRARGWTREDYDLATVDVGASMLVAFGIYSLAIFLVTASVLTSGDLTTVGAAEALGPLVGDSARWLFLLGLWGAAVSTLGGNTIVPPFLLADKLGWGTTIEDNRYRGLLAAVALLSAPGAFIGGNVLGQLVLVLALGTVGTPFAIALVLYLLNSAAVPESNSLLANVGGLALIAVSGGLAANFVVEQLGGGVGPLSGFVLAFAIALGLAMAGLGGKFLREELLA”, the protein production result was “failed”.

Take “MKEVLFISEMERGRAEIESRVSNIKTTQDFGYREKIKEKKDASTAYAACISELLLEEKVKKIAVAYDFPIFYSNYLTEAGFTIVPVKSPFRKMRSVKGPEEIEAIKYAQMAGEKAMEAAITLIADAEEKDGVLYFEGQVLTGAKVNSVIDHTLLDFGCEAEETIVSCGEDTSNPHGTTEGPLRANAPIILDIFPRSKKKRYFADMTRTVLRGEASEKLKEMYETVLVAQQKALEMVKPGIHSSEIHRAVCDLFEARGYHTYRSGSKAGFTHSTGHGVGLDIHELPSVGESGVLLETGNVITIEPGLYYPGIGGIRLEDMVLVTKTGYENFTGLEKKFVLKSFYNLEHHHHHH”: the protein production result was “failed”.

On to “MADIDQASKTEMEAAAFRHLLRHLDEHKDVQNIDLMIQADFCRNCLAKWLMEAATEQGVELDYDGAREYVYGMPFAEWKTLYQKPASEAQLAAFEAKQAARKR”, for which the protein production entry was “not failed”.

For “MAASSACLVGNGLSVNTTTKQRLSKHFSGRQTSFSSVIRTSKVNVVKASLDGKKKQEGRRDFLKILLGNAGVGLVASGKANADEQGVSSSRMSYSRFLEYLDKDRVNKVDLYENGTIAIVEAVSPELGNRVERVRVQLPGLSQELLQKLRAKNIDFAAHNAQEDQGSVLFNLIGNLAFPALLIGGLFLLSRRSGGGMGGPGGPGNPLQFGQSKAKFQMEPNTGVTFDDVAGVDEAKQDFMEVVEFLKKPERFTAVGAKIPKGVLLIGPPGTGKTLLAKAIAGEAGVPFFSISGSEFVEMFVGVGASRVRDLFKKAKENAPCIVFVDEIDAVGRQRGTGIGGGNDEREQTLNQLLTEMDGFEGNTGVIVVAATNRADILDSALLRPGRFDRQVSVDVPDVKGRTDILKVHAGNKKFDNDVSLEIIAMRTPGFSGADLANLLNEAAILAGRRARTSISSKEIDDSIDRIVAGMEGTVMTDGKSKSLVAYHEVGHAVCGTLTPGHDAVQKVTLIPRGQARGLTWFIPSDDPTLISKQQLFARIVGGLGGRAAEEIIFGDSEVTTGAVGDLQQITGLARQMVTTFGMSDIGPWSLMDSSAQSDVIMRMMARNSMSEKLAEDIDSAVKKLSDSAYEIALSHIKNNREAMDKLVEVLLEKETIGGDEFRAILSEFTEIPPENRVPSSTTTTPASAPTPAAV”, the protein production entry was “not failed”.

Consider “MPVQTYPVDIVIRAYDRPGLLRDVSQVLLNEKINVLAVNTRSNKEDNTALMSLTIEIPGLDALGRLLGRISQLPNIIETRRNRTPLEHHHHHH”, for which the protein production entry is “failed”.

“SSPQDTCCPPDSWPALKVDYKPKGKLEDIGKGLKAYVVGNGPRAVIALNDVFGIESGHSKEICDAIADKGFTVVFPDVFRGKPLQVSDMSKLFDELPGWAKQFDYEPALRKDVVEVILPYLHDKLGFKSNDQIALAGFCWGAFMLFHLAGDTKLPGGPFACGVSFHPSVQIEGVFQRDPLQLIDRATCPQLLLPSAGEPDYMKEEGDAIKKLRAKPFGASCGVKTFPSMQHGWVNRGDRNDPQVVKEAQEALQLAVDFMMRHTKPKA”: the protein production result is “not failed”.

For the sequence “MSRPTVSVIIPTHNRAKLLKRAIISVLNQTFEDFEIIVVDDASSDNTPNIIESIKDSRIRYIRLEKNSGAPTARNIGIKKARGKFIALLDDDDEWLPRKLEVQVKKFNELEKKFGVVYGGFYYVSQQNERIIGKRLPRFRGNVYGELLKENFIGSPTVLIRRECFKKAGLFDPKLPSSQDWDMWVRIARYYYFDYIVAKYYVHGHQISFNINEKYIPGREIFISKHKDIANNPKILSMHLTQMGLLSILGGNIEKGVKYLAQSITISPLNIDSYKKVIELTLDSRFLEYVKNILHANYLEHHHHHH”, the protein production result is “failed”.

On to “MFFKQFYDKHLSQASYLIGCQKTGEAMIIDPIRDLSSYIRVADEEGLTITHAAETHIHADFASGIRDVAIKLNASIYVSGESDDTLGYKNMPNQTHFVQHNDDIYVGNIKLKVLHTPGHTPESISFLLTDEGAGAQVPMGLFSGDFIFVGDIGRPDLLEKAVKVEGSSEIGAKQMFKSIESIKDLPNYIQIWPGHGAGSPCGKSLGAIPTSTLGYEKQTNWAFSENNEATFIDKLISDQPAPPHHFAQMKKINQFGMNLYQPYTVYPATNTNRLTFDLRSKEAYHGGHIEGTINIPYDKNFINQIGWYLNYDQEINLIGEYHLVSKATHTLQLIGYDDVAGYQLPQSKIQTRSIHSEDITGNESHILDVRNDNEWNNGHLSQAVHVPHGKLLETDLPFNRNDVIYVHCQSGIRSSIAIGILEHKGYHNIINVNEGYKDIHLSLEHHHHHH”, for which the protein production entry was “failed”.

On to “MKASELRNYTDEELKNLLEEKKRQLMELRFQLAMGQLKNTSLIKLTKRDIARIKTILRERELGIRR”, for which the protein production entry is given as “not failed”.

Regarding “MGSSHHHHHHSSGLVPRGSHMGKEYFLKVALREAKRAFEKGEVPVGAIIVKEGEIISKAHNSVEELKDPTAHAEMLAIKEACRRLNTKYLEGCELYVTLEPCIMCSYALVLSRIEKVIFSALDKKHGGVVSVFNILDEPTLNHRVKWEYYPLEEASELLSEFFKKLRNNII”, the protein production entry is “not failed”.

Turning to “MTVANWQVRDLTLILRTGEMQSRLEQARTDFGALLPETVYFQPSAIRLGEFDDEYILTRQELVYVYLREDIARQCALRRHLPSNSSNSGIMATAIPPWLMDARRLNRVMQERCDQGGLVHYYQGPHTNQFFLAIMPSNCFVRFGTDVINNENYGFYARGGNYTEEGEDDDDEMDDEDETGGAETRDSQTGNLINYPIIALGSCHLSALEHHHHHH”, the protein production result was “not failed”.

Consider “MKRKHLSGKSIGIVFGTFAPMHVGHVDLITKEKRANDNVLVIVSGSNTQKDRGTRTGLSLNRRFRNVREIFYDDELIVVDKLDEADMPPYPEGWVPWVNRVKDLITKNTDGPEKITFYVGESEYVIELNRYYPQAQVELIECSVINISATEIRDNPIENWRFITKPFRRHF”, for which the protein production result was “failed”.

Consider “MAQVFNFSSGPAMLPAEVLKLAQQELCDWHGLGTSVMEISHRGKEFIQVAEEAEQDFRDLLNIPSNYKVLFCHGGGRGQFAGVPLNLLGDKTTADYVDAGYWAASAIKEAKKYCAPQIIDAKITVDGKRAVKPMREWQLSDNAAYLHYCPNETIDGIAIDETPDFGPEVVVTADFSSTILSAPLDVSRYGVIYAGAQKNIGPAGLTLVIVREDLLGKAHESCPSILDYTVLNDNDSMFNTPPTFAWYLSGLVFKWLKAQGGVAAMHKINQQKAELLYGVIDNSDFYRNDVAQANRSRMNVPFQLADNTLDKVFLEESFAAGLHALKGHRVVGGMRASIYNAMPIEGVKALTDFMIDFERRHG”, for which the protein production result was “not failed”.

Take “MSHAIQIREAHFPGRAPIDAYGNGGFRFADMSHRGSIICIPSGIYGIDMTGPVPTQEDISRVLEESDQIEVLLIGTGVELLRLPEELRVLLWEKRISSDTMSTGAAVRTFNVLLAEDRAVAALLFAVE”: the protein production entry is recorded as “not failed”.

“MSATLKDYLNKRVVIIKVDGECLIASLNGFDKNTNLFITNVFNRISKEFICKAQLLRGSEIALVGLIDAENDDSLAPIDEKKVPMLKDTKNKIENEHVIWEKVYESKTK”: the protein production result is “failed”.

As to “MRDEAGSRGIVMQNASANALVPREAARAAPMADIQKIAQHMARLNVAALPRNYELFHEAIIGLNAGLAQDIAALGSQPQQPMLDELGLKYRLAGHCGLAGETSRNEASRMLRDVAERLAEGLRHKNAFARACGTILKSVSGQNDQSLAAFLSEIDYLTASLSTVLAAEMEIGAKLQDDIKTLETLERGISAMQSAAIADRITGLPNRIALNRTIADLYERQEGAAGSALIMVDIDNFTDLNDKYGTQAGNKLLKKLAGLLQKSIKKNDFVARTEGDEFALLFSNVGMQDAIAIAERLRASVEDNLVFATSDKTDRGRLTISIGVALSTDAATPGQLQANARVALLAAQSNPRLPVQAFGR”, the protein production result was “failed”.

With “MSATTTNLKEAIVNRRSIRKVTKNDAITKERIEEVLKTALHAPTSFNMQSGRMVVLMDGEHEKFWDIVKETLRARVPAENFEATVERLKGFHAGVGTVLFFEDQATVEKMQENAPLYKDQFPFWSHQGNAMLQHTVWMLLSAEGIGASLQHYNPIVDAEVKETWNIPAEWSLVGQMPFGEPNEQPAERTFLPTEDVVKFY”, the protein production result was “not failed”.
